One assay deals with T1, ErbB4 (HER4) (UniProt Q15303 26-651, limits assumed).
T1 sequence (looked up): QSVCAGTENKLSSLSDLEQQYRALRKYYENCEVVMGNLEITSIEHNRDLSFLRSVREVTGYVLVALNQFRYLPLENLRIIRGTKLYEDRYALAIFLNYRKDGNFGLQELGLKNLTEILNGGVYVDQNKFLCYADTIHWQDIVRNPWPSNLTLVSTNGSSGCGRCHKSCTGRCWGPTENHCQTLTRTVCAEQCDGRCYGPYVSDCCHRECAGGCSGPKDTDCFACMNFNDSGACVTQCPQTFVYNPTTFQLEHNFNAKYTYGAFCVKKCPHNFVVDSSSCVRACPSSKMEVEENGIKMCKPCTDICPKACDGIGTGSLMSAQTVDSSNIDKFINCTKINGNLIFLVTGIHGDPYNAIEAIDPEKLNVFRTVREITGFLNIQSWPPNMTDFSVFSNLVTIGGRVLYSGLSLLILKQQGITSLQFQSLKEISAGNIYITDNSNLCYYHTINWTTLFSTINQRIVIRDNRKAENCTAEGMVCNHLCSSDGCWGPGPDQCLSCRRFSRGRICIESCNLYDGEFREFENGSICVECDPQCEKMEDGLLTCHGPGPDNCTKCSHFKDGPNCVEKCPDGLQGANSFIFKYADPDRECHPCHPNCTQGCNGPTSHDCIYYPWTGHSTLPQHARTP
As to the kind of experiment: not described.

For the next assay, the target named is T2, ErbB3 (HER3) (human, UniProt P21860 20-1342).
T2 construct: whole, on cells
The experiment in a line: not described.

T2 sequence (P21860 20-1342): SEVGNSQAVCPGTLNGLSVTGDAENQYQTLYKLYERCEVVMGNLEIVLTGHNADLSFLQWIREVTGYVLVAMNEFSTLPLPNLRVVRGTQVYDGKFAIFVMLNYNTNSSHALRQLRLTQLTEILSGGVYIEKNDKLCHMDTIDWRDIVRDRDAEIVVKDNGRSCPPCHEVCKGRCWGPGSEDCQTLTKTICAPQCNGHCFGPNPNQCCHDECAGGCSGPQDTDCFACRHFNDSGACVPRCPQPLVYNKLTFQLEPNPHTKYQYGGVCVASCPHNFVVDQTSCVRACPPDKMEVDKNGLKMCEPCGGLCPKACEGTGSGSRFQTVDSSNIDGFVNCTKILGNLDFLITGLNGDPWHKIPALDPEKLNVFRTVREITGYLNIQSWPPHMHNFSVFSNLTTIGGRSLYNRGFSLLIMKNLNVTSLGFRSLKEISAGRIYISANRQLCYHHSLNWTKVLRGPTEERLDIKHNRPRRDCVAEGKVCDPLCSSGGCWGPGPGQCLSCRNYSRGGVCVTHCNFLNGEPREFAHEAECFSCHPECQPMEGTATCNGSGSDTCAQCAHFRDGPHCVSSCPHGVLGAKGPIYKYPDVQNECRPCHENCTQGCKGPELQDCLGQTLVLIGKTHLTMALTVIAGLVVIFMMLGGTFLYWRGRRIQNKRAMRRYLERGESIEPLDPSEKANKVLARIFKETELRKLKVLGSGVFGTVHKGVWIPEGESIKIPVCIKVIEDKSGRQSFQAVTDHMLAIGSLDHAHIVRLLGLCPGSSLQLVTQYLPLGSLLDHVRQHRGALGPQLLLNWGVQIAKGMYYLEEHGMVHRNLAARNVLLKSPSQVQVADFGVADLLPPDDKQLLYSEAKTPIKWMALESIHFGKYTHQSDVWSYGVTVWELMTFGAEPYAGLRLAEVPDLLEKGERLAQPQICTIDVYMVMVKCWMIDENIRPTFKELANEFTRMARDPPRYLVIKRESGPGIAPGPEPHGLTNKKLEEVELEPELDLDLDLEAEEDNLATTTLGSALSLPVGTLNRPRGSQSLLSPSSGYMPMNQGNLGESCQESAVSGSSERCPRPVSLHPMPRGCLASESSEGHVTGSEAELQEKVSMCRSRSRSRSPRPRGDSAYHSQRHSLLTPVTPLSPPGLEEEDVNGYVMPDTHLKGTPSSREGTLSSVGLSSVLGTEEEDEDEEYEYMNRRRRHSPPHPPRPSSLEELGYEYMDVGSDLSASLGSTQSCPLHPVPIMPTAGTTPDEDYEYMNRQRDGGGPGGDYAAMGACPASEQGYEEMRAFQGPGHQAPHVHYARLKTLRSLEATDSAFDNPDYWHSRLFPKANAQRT

B1: murine monoclonal antibody 2C4 (antibody, V domains shown)
VH: EVQLQQSGPELVKPGTSVKISCKASGFTFTDYTMDWVKQSHGKSLEWIGDVNPNSGGSIYNQRFKGKASLTVDRSSRIVYMELRSLTFEDTAVYYCARNLGPSFYFDYWGQGTTLTVSS
VL: DTVMTQSHKIMSTSVGDRVSITCKASQDVSIGVAWYQQRPGQSPKLLIYSASYRYTGVPDRFTGSGSGTDFTFTISSVQAEDLAVYYCQQYYIYPYTFGGGTKLEIK
notes: also called mu 2C4; intact murine 2C4
For B1, the binding result in the assay with ErbB4 (HER4) and with ErbB3 (HER3) was “no binding” in each case.

For the origin of these results see patent US7501122 (Genentech, dated 2009).
